Our source for the Kd values is patent publication US20160009772A1, “CELL PENETRATING PEPTIDES WHICH BIND IRF5” (priority 2012, published 2016).

One may read the Kd as the free concentration of one partner at which half of the binding sites on the other are occupied at equilibrium, for simple one-to-one binding. Read a high Kd as weaker binding.

The assay addresses Wild type IRF5 (222-467) (human) (UniProt Q13568). In words: TR-FRET. In general terms: In TR-FRET formats the signal depends on donor and acceptor labels being close together.

Wild type IRF5 (222-467), sequence (Q13568 232-477): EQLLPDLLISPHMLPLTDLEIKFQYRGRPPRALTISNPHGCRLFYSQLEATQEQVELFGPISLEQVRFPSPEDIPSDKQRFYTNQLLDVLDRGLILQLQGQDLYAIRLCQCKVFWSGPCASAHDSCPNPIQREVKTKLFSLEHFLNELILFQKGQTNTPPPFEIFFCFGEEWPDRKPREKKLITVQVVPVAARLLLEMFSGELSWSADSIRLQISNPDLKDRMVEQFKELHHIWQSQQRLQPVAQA

“IRF5(222-467, S430D), S430D phosphomimetic construct of IRF5 (222-467) (from UniProt Q13568 222-467)” had a Kd of 1.58 µM.
To “Wild type IRF5 (222-467) (from UniProt Q13568 232-477)” belongs 4.21 µM.
